Reference: US20250170267A1, “ANTIBODY-DRUG CONJUGATE PRECURSOR AND INTERMEDIATE FOR SYNTHESIS THEREOF” (UBE Corporation, priority 2022, published 2025)
Numbered stars: 1 amine (or outer) side, 2 acyl side, 3 side chain; on linkers, the order of the positions; unused ones are H or OH. Square brackets hold non-standard residues; d marks the D form. Peptide text beside a SMILES is read from it. * marks the point of attachment. Exatecan = CC[C@@]1(O)C(=O)OCc2c1cc1n(c2=O)Cc2c-1nc1cc(F)c(C)c3c1c2[C@@H](N*)CC3; βAla(2S-maleimido) = O=C1C=CC(=O)N1[C@@H](CN[*:1])C(=O)[*:2]; Dolaproine = CO[C@@H]([C@@H]1CCCN1)[C@@H](C)C(=O)O; Hexanoyl(6-maleimido) = O=C1C=CC(=O)N1CCCCCC(=O)*; Propanoyl(3-maleimido) = O=C1C=CC(=O)N1CCC(=O)*; Dil = CC[C@H](C)[C@H](NC)[C@@H](CC(=O)O)OC; X3 = C[C@@H](N*)[C@@H](OP(=O)(O)O)c1ccccc1; Propanoyl(3-PO3H2) = O=C(CCP(=O)(O)O)*; PABC = O=C(OCc1ccc(N[*:1])cc1)[*:2]; NHCH2OCH2CO = O=C(COCN[*:1])[*:2]; X1 = C[C@@H](N*)[C@@H](O)c1ccccc1; hSer(lactone) = O=C1OCC[C@@H]1N*; Cit = NC(=O)NCCC[C@H](N)C(=O)O; PEG4 = NCCOCCOCCOCCOCCC(=O)O; NMeV = CN[C@H](C(=O)O)C(C)C

How the values were obtained:
[1] = Retention time in HPLC (index of hydrophilicity); assay type: physicochemical; settings: BEH C18, 0.1% formic acid/acetonitrile gradient, 40° C.
Description: As an index of hydrophilicity of the Examples, the retention time (RT) in HPLC analysis was measured, and compared.
Device: LCMS2020 system Shimadzu Corporation
Column: Acquity UPLC (registered trademark) BEH C18 (2.1×50 mm, 1.7 μm)_Waters
Eluent: Solution A: 0.1% aqueous solution of formic acid, Solution B: 0.1% solution of formic acid in acetonitrile

[2] = tested on: human liver lysosome; test: Metabolism test using human liver lysosomal fraction; assay type: in vitro ADME; settings: 37° C., 24 hours, released drug, LC-MS/MS
Description: To a reaction composition solution (X10 Catabolic Buffer (manufactured by SEKISUI-Xenotech, LLC., K5200))(60 μL) in which human liver lysosome (manufactured by SEKISUI-Xenotech, LLC., Cat No. H610.L 2.5 mg/mL)(corresponding to 0.125 mg of protein) was suspended and distilled water (manufactured by FUJIFILM Wako Pure Chemical Corporation, for HPLC)(10 μL) was added 1.2 μM test compound (antibody-drug conjugate produced in ADC Production examples)(25 μL) dissolved in PBS to prepare a reaction solution. After the reaction solution was incubated at 37° C. for 24 hours, “an antitumor drug molecule or an analog thereof, or a derivative thereof” released from the antibody-drug conjugate into the reaction solution was quantified by LC-MS/MS (high performance liquid chromatography/mass spectrometer system) under the following conditions. LC-MS/MS analysis conditions
(§1) LC: LC20 or LC30 HPLC system manufactured by Shimadzu Corporation
(§2) Column: Phenomenex Kinetex C18 (50×2.1 mm, 2.6 μm)
(§3) Column temperature: 40° C.
(§4) Mobile phase A: 0.1% aqueous solution of formic acid, Mobile phase B: 0.1% solution of formic acid in a mixture of 50% acetonitrile/methanol
(§5) Mode: Positive or Negative
(§6) The release rate (%) of drug was calculated by the following equation.

[3] = molecular target: T1, human liver Cathepsin B (Homo sapiens, UniProt P07858); test: Metabolism test using human liver Cathepsin B; assay type: in vitro ADME; settings: 37° C., 24 hours, released drug, LC-MS/MS
T1 construct: human liver Cathepsin B (manufactured by Sigma-Aldrich Co. LLC, Cat No. C8571 25 μg/vial); purchased Sigma-Aldrich Co. LLC C8571; host or cells: human liver
Description: To human liver Cathepsin B (manufactured by Sigma-Aldrich Co. LLC, Cat No. C8571 25 μg/vial)(corresponding to 400 Unit/mL)(5 μL), X10 Catabolic Buffer (manufactured by SEKISUI-Xenotech, LLC., K5200)(10 μL), 2.5 mM Bovine Serum Albumin (manufactured by FUJIFILM Wako Pure Chemical Corporation, Cat No. 012-15093)(5 μL), and distilled water (manufactured by FUJIFILM Wako Pure Chemical Corporation, for HPLC)(55 μL) was added 1.2 μM test compound (antibody-drug conjugate prepared in ADC Production examples)(25 μL) dissolved in PBS to prepare a reaction solution. After the reaction solution was incubated at 37° C. for 24 hours, “an antitumor drug molecule or an analog thereof, or a derivative thereof” released from the antibody-drug conjugate into the reaction solution was quantified by LC-MS/MS (high performance liquid chromatography/mass spectrometer system) under the following conditions. LC-MS/MS analysis conditions
as §1, §2, §3, §4, §5, §6

[4] = Pharmacokinetic test (serum trastuzumab residual rate); assay type: in vivo; settings: female BALB/c mouse, intravenous; 3 days vs 5 minutes after administration
Source text: After a prescribed time period, the blood was collected from the jugular vein or abdominal vein, and centrifuged to prepare a serum. The resulting serum was cryopreserved until the measurement.

SMILES	Retention time in HPLC measurement ([1]; Table 5 (MMAE-type precursors)) [min]	Release rate (%) of drug from ADC [2] [%]	Release rate (%) of drug from ADC [3] [%]	Serum trastuzumab residual rate after 3 days from administration (%) [4] [%]	Retention time in HPLC measurement ([1]; Table 6 (eribulin precursors)) [min]
CC[C@H](C)[C@@H]([C@@H](CC(=O)N1CCC[C@H]1[C@H](OC)[C@@H](C)C(=O)N[C@H](C)[C@@H](OP(=O)(O)O)c1ccccc1)OC)N(C)C(=O)[C@@H](NC(=O)[C@H](C(C)C)N(C)C(=O)OCc1ccc(NC(=O)[C@H](CCCNC(N)=O)NC(=O)[C@@H](NC(=O)[C@H](CC(=O)N[C@H]2CCOC2=O)NC(=O)CCOCCOCCOCCOCCNC(=O)CCN2C(=O)C=CC2=O)C(C)C)cc1)C(C)C [Example 2] ({Propanoyl(3-maleimido)-PEG4}-D(hSer(lactone))V[Cit][PABC][NMeV]V[Dil][Dolaproine]-X3)	0.96				
CC[C@H](C)[C@@H]([C@@H](CC(=O)N1CCC[C@H]1[C@H](OC)[C@@H](C)C(=O)N[C@H](C)[C@@H](OP(=O)(O)OCc1ccc(NC(=O)[C@H](CCCNC(N)=O)NC(=O)[C@@H](NC(=O)[C@H](CC(=O)N[C@H]2CCOC2=O)NC(=O)CCOCCOCCOCCOCCNC(=O)[C@H](CNC(=O)CCP(=O)(O)O)N2C(=O)C=CC2=O)C(C)C)cc1)c1ccccc1)OC)N(C)C(=O)[C@@H](NC(=O)[C@H](C(C)C)N(C)C)C(C)C [Example 3]	0.70				
CC[C@H](C)[C@@H]([C@@H](CC(=O)N1CCC[C@H]1[C@H](OC)[C@@H](C)C(=O)N[C@H](C)[C@@H](O)c1ccccc1)OC)N(C)C(=O)[C@@H](NC(=O)[C@H](C(C)C)N(C)C(=O)OCc1ccc(NC(=O)[C@H](CCCNC(N)=O)NC(=O)[C@@H](NC(=O)[C@H](CC(=O)N[C@H]2CCOC2=O)NC(=O)CCOCCOCCOCCOCCNC(=O)[C@H](CNC(=O)CCP(=O)(O)O)N2C(=O)C=CC2=O)C(C)C)cc1)C(C)C [Example 8] ({Propanoyl(3-PO3H2)}-[βAla(2S-maleimido)][PEG4]D(hSer(lactone))V[Cit][PABC][NMeV]V[Dil][Dolaproine]-X1)	1.03	60	41		
CC[C@@]1(O)C(=O)OCc2c1cc1n(c2=O)Cc2c-1nc1cc(F)c(C)c3c1c2[C@@H](NC(=O)COP(=O)(O)OCc1ccc(NC(=O)[C@H](CCCNC(N)=O)NC(=O)[C@@H](NC(=O)[C@H](CC(=O)N[C@H]2CCOC2=O)NC(=O)CCOCCOCCOCCOCCNC(=O)[C@H](CNC(=O)CCP(=O)(O)O)N2C(=O)C=CC2=O)C(C)C)cc1)CC3 [Example 12]		3.5	106		
CC[C@@]1(O)C(=O)OCc2c1cc1n(c2=O)Cc2c-1nc1cc(F)c(C)c3c1c2[C@@H](NC(=O)COCNC(=O)CNC(=O)[C@H](Cc1ccccc1)NC(=O)CNC(=O)CNC(=O)[C@H](CC(=O)N[C@H]1CCOC1=O)NC(=O)CCCCCN1C(=O)C=CC1=O)CC3 [Example 13] ({Hexanoyl(6-maleimido)}-D(hSer(lactone))GGFG[NHCH2OCH2CO]-Exatecan)		76	24	25	
C=C1C[C@@H]2CC[C@@]34C[C@H]5O[C@H]6[C@@H](O3)[C@H]3O[C@H](CC[C@@H]3O[C@H]6[C@H]5O4)CC(=O)C[C@@H]3[C@@H](OC)[C@@H](C[C@H](O)CNC(=O)OCc4ccc(NC(=O)[C@H](CCCNC(N)=O)NC(=O)[C@@H](NC(=O)[C@H](CC(=O)N[C@H]5CCOC5=O)NC(=O)CCOCCOCCOP(=O)(O)OCCNC(=O)[C@H](CNC(=O)CCP(=O)(O)O)N5C(=O)C=CC5=O)C(C)C)cc4)O[C@H]3C[C@H]3O[C@@H](CC[C@@H]1O2)C[C@@H](C)C3=C [Example 17]		56	58		1.04
C=C1C[C@@H]2CC[C@@]34C[C@H]5O[C@H]6[C@@H](O3)[C@H]3O[C@H](CC[C@@H]3O[C@H]6[C@H]5O4)CC(=O)C[C@@H]3[C@@H](OC)[C@@H](C[C@@H](CNC(=O)OCc4ccc(NC(=O)[C@H](CCCNC(N)=O)NC(=O)[C@@H](NC(=O)[C@H](CC(=O)N[C@H]5CCOC5=O)NC(=O)CCOCCOCCOCCOCCNC(=O)[C@H](CNC(=O)CCP(=O)(O)O)N5C(=O)C=CC5=O)C(C)C)cc4)OP(=O)(O)O)O[C@H]3C[C@H]3O[C@@H](CC[C@@H]1O2)C[C@@H](C)C3=C [Example 26]					0.91
